These results are taken from the supplement of paper PMC11246515.

The data set is described as follows: total protein half-life in vivo (active degradation + dilution); higher = more stable protein.
The mark [1] stands for this setting: E. coli NCM3722 delta-clpP, growth: N-lim chemostat, doubling time 6 h.
[2] abbreviates: E. coli NCM3722 delta-hslV, growth: N-lim chemostat, doubling time 6 h.
The mark [3] stands for this setting: E. coli NCM3722 delta-smpB, growth: N-lim chemostat, doubling time 6 h.
Setting [4] is: wild type E. coli NCM3722, growth: C-lim chemostat, doubling time 3 h.
[5] abbreviates: wild type E. coli NCM3722, growth: C-lim chemostat, doubling time 6 h.
The mark [6] stands for this setting: wild type E. coli NCM3722, growth: P-lim chemostat, doubling time 6 h.
Where [7] appears, read: wild type E. coli NCM3722, growth: P-lim chemostat, doubling time 12 h.
Setting [8] is: E. coli NCM3722 delta-clpP delta-lon delta-hslV, growth: N-lim chemostat, doubling time 6 h.
The mark [9] stands for this setting: E. coli NCM3722 delta-lon, growth: N-lim chemostat, doubling time 6 h.
[10] abbreviates: wild type E. coli NCM3722, growth: C-lim chemostat, doubling time 12 h.
Setting [11] is: wild type E. coli NCM3722, growth: N-lim chemostat, doubling time 6 h.
The mark [12] stands for this setting: wild type E. coli NCM3722, growth: N-lim chemostat, doubling time 12 h.

± gives the standard deviation of the averaged measurements.

With “MPDAKKQGRSNKAMTFFVCFLAALAGLLFGLDIGVIAGALPFIADEFQITSHTQEWVVSSMMFGAAVGAVGSGWLSFKLGRKKSLMIGAILFVAGSLFSAAAPNVEVLILSRVLLGLAVGVASYTAPLYLSEIAPEKIRGSMISMYQLMITIGILGAYLSDTAFSYTGAWRWMLGVIIIPAILLLIGVFFLPDSPRWFAAKRRFVDAERVLLRLRDTSAEAKRELDEIRESLQVKQSGWALFKENSNFRRAVFLGVLLQVMQQFTGMNVIMYYAPKIFELAGYTNTTEQMWGTVIVGLTNVLATFIAIGLVDRWGRKPTLTLGFLVMAAGMGVLGTMMHIGIHSPSAQYFAIAMLLMFIVGFAMSAGPLIWVLCSEIQPLKGRDFGITCSTATNWIANMIVGATFLTMLNTLGNANTFWVYAALNVLFILLTLWLVPETKHVSLEHIERNLMKGRKLREIGAHD [P0AEP1]”, the “total protein half-life in vivo” value runs as follows: under setting [1], 4.26 h; under setting [2], 4.28 h; under setting [3], 6.91 h; under setting [4], 2.58 h; under setting [5], 4.51 h; under setting [6], 5.628 ± 0.028 h. Besides, under setting [7], the “total protein half-life in vivo” value amounted to 9.86 h.
“MQRETVWLVEDEQGIADTLVYMLQQEGFAVEVFERGLPVLDKARKQVPDVMILDVGLPDISGFELCRQLLALHPALPVLFLTARSEEVDRLLGLEIGADDYVAKPFSPREVCARVRTLLRRVKKFSTPSPVIRIGHFELNEPAAQISWFDTPLALTRYEFLLLKTLLKSPGRVWSRQQLMDSVWEDAQDTYDRTVDTHIKTLRAKLRAINPDLSPINTHRGMGYSLRGL”: the “total protein half-life in vivo” value reads like this: under setting [8], 5.69 ± 1.5 h; under setting [1], 4.02 ± 0.41 h; under setting [2], 3.55 h; under setting [9], 4.49 ± 0.45 h; under setting [3], 3.92 h; under setting [4], 2.74 ± 0.18 h. Also, the “total protein half-life in vivo” value is, setting by setting: under setting [5], 4.86 ± 0.057 h; under setting [10], 11.5 ± 3.6 h; under setting [11], 3.99 h; under setting [12], 6.73 ± 0.16 h; under setting [6], 4.04 h; under setting [7], 7.89 ± 0.58 h.
For “MKRYTPDFPEMMRLCEMNFSQLRRLLPRNDAPGETVSYQVANAQYRLTIVESTRYTTLVTIEQTAPAISYWSLPSMTVRLYHDAMVAEVCSSQQIFRFKARYDYPNKKLHQRDEKHQINQFLADWLRYCLAHGAMAIPVY [P0ADU7]”, the “total protein half-life in vivo” value reads like this: under setting [8], 6.32 ± 0.34 h; under setting [1], 5.73 ± 0.49 h; under setting [2], 1.79 h; under setting [9], 2.11 ± 0.32 h; under setting [3], 2.25 ± 0.22 h; under setting [5], 2.76 ± 0.49 h. Besides, the “total protein half-life in vivo” value is, setting by setting: under setting [11], 2.03 h; under setting [12], 2.84 h; under setting [6], 3.67 ± 0.23 h; under setting [7], 7.5 ± 0.71 h.
With “MTQPVLDIQQLHLSFPGFNGDVHALNNVSLQINRGEIVGLVGESGSGKSVTAMLIMRLLPTGSYCVHRGQISLLGEDVLNAREKQLRQWRGARVAMIFQEPMTALNPTRRIGLQMMDVIRHHQPISRREARAKAIDLLEEMQIPDAVEVMSRYPFELSGGMRQRVMIALAFSCEPQLIIADEPTTALDVTVQLQVLRLLKHKARASGTAVLFISHDMAVVSQLCDSVYVMYAGSVIESGVTADVIHHPRHPYTIGLLQCAPEHGVPRQLLPAIPGTVPNLTHLPDGCAFRDRCYAAGAQCENVPALTACGDNNQRCACWYPQQEVISV”, the “total protein half-life in vivo” value under setting [8] turned out to be 6.47 ± 1.1 h; the “total protein half-life in vivo” value under setting [1] stood at 3.49 ± 0.17 h; the “total protein half-life in vivo” value under setting [2] was determined as 4.03 ± 0.098 h; the “total protein half-life in vivo” value under setting [9] stood at 2.24 h; the “total protein half-life in vivo” value under setting [3] worked out at 4.53 ± 0.11 h; the “total protein half-life in vivo” value under setting [4] worked out at 2.28 ± 0.3 h. The “total protein half-life in vivo” value under setting [5] worked out at 3.41 ± 0.54 h, the “total protein half-life in vivo” value under setting [11] was found to be 4.02 ± 0.26 h and the “total protein half-life in vivo” value under setting [12] turned out to be 7.62 ± 0.58 h.
With “MKTRIHVVQGDITKLAVDVIVNAANPSLMGGGGVDGAIHRAAGPALLDACLKVRQQQGDCPTGHAVITLAGDLPAKAVVHTVGPVWRGGEQNEDQLLQDAYLNSLRLVAANSYTSVAFPAISTGVYGYPRAAAAEIAVKTVSEFITRHALPEQVYFVCYDEENAHLYERLLTQQGDE [P0A8D6]”, the “total protein half-life in vivo” value by setting is: under setting [1], 4.32 ± 0.98 h; under setting [2], 4.02 ± 0.17 h; under setting [9], 4.294 ± 0.033 h; under setting [3], 3.89 ± 0.28 h; under setting [5], 5.89 ± 0.66 h; under setting [10], 9.58 ± 0.72 h. Also, the “total protein half-life in vivo” value came to 4.63 ± 0.32 h under setting [11], 6.81 ± 0.32 h under setting [12], 5.95 ± 0.57 h under setting [6] and 12 ± 0.23 h under setting [7].
For “MNNSEGLKSFQQSLADLPQWVSERLLQQINQLTNYEPVIGIMGKTGVGKSSLCNALFAGDISPVSDVAACTREPLRFRLQVGDRYITLMDLPGVGESGARDTEYAALYREQLPRLDLVLWLIKADDRALTVDEHFYHQVIGEVYRHKVLFVISQSDKAEPTSGGGQLSTAQKQNISRKICLLHELFQPVHPVCAVSVRLQWGLKVMAERMIKCLPREATSPVVSQLHPSFRTTVVREQARSDFGETVGAVLDSISAFPLIPAPVRAVIQAVRTTVVSVARAVWDFFF”, the “total protein half-life in vivo” value by setting is: under setting [3], 3.51 h; under setting [7], 6.63 h.
Turning to “MKQTVAAYIAKTLESAGVKRIWGVTGDSLNGLSDSLNRMGTIEWMSTRHEEVAAFAAGAEAQLSGELAVCAGSCGPGNLHLINGLFDCHRNHVPVLAIAAHIPSSEIGSGYFQETHPQELFRECSHYCELVSSPEQIPQVLAIAMRKAVLNRGVSVVVLPGDVALKPAPEGATMHWYHAPQPVVTPEEEELRKLAQLLRYSSNIALMCGSGCAGAHKELVEFAGKIKAPIVHALRGKEHVEYDNPYDVGMTGLIGFSSGFHTMMNADTLVLLGTQFPYRAFYPTDAKIIQIDINPASIGAHSKVDMALVGDIKSTLRALLPLVEEKADRKFLDKALEDYRDARKGLDDLAKPSEKAIHPQYLAQQISHFAADDAIFTCDVGTPTVWAARYLKMNGKRRLLGSFNHGSMANAMPQALGAQATEPERQVVAMCGDGGFSMLMGDFLSVVQMKLPVKIVVFNNSVLGFVAMEMKAGGYLTDGTELHDTNFARIAEACGITGIRVEKASEVDEALQRAFSIDGPVLVDVVVAKEELAIPPQIKLEQAKGFSLYMLRAIISGRGDEVIELAKTNWLR”, the “total protein half-life in vivo” value amounted to 5.5 ± 0.51 h under setting [8]; 5.2 ± 0.97 h under setting [1]; 4.77 ± 0.08 h under setting [2]; 5.321 ± 0.051 h under setting [9]; 4.71 ± 0.4 h under setting [3]; 3.19 ± 0.15 h under setting [4]. The “total protein half-life in vivo” value came out at 5.59 ± 0.21 h under setting [5]; 11.2 ± 2.6 h under setting [10]; 4.7 ± 0.064 h under setting [11]; 7.734 ± 0.064 h under setting [12]; 5.614 ± 0.02 h under setting [6]; 11.6 ± 0.17 h under setting [7].
